As usually defined, the IC50 is the concentration that gives 50% inhibition.

The target in series [1] is T1, chymase (Homo sapiens, UniProt P23946).
T1 sequence (P23946 22-247): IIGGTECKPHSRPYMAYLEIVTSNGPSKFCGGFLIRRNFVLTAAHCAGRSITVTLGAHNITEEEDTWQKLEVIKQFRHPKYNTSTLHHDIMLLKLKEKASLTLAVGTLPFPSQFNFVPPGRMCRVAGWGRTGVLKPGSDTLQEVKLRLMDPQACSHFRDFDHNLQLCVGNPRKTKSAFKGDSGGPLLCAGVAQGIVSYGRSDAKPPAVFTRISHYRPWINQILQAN
The experiment in a line: Surface plasmon resonance (Biacore T100), aptamer immobilized on SA chip, chymase injected as analyte. Further details: key: ++: a sequence that binds to chymase significantly more strongly than the negative control 40N; +: a sequence that binds to chymase equivalently compared with the negative control 40N. The conditions noted are these: Table 1; about 1000 RU nucleic acid immobilized, chymase 0.2 μM analyte, running buffer solution A; compared with 40N. Type of series: binding. On the procedure: Binding strength is measured using Biacore T100 (manufactured by GE Healthcare). In a method of measurement, the aptamer is first immobilized onto a sensor chip, the amount immobilized being about 1000 RU. 20 μL of a chymase solution for analyte, prepared at 0.2 μM, is injected, and the binding of chymase to the aptamer is detected. An RNA comprising a random nucleotide sequence of 30 or 40 nucleotides is used as a negative control.
The binding activities against chymase of the nucleic acids shown by SEQ ID NO: 4-20 and 22-34 were determined by the surface plasmon resonance method using Biacore T100 (manufactured by GE Healthcare). The sensor chip used was the SA chip, which had streptavidin immobilized thereon. Bound thereto was about 1500 RU of a 16-nucleotide Poly dT with biotin bound to the 5′ end thereof. […] 20 μL of chymase for analyte, prepared at 0.2 μM, was injected. Solution A was used as a running buffer.
The binding activities against chymase of the nucleic acids shown by SEQ ID NO: 38-48 were evaluated by the surface plasmon resonance method. In the evaluations for SEQ ID NO: 38-48, measurements were taken in the same manner as Example 1. Solution C was used as a running buffer.
A general note: Surface plasmon resonance follows binding to a sensor surface in real time, without labels.

The target of series [2] is T2, chymase (recombinant, manufactured by SIGMA) (Homo sapiens, UniProt P23946).
T2 construct: purchased SIGMA; host or cells: yeast
T2 sequence (P23946 22-247): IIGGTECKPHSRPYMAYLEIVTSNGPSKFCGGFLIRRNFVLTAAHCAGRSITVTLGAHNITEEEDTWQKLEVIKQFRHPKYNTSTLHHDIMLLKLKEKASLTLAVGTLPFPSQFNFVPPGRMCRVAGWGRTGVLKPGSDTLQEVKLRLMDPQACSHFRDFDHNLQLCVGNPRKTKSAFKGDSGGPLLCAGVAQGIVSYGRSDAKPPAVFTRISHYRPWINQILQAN
The experiment in a line: Chymase inhibitory activity using synthetic substrate Suc-Ala-Ala-Pro-Phe-MCA. Type of series: biochemical. The conditions noted are these: Table 3; substrate 100 μM, solution C, 37° C.; mean value for 2 to 3 measurements. The method, then:
A first method employs a synthetic substrate. A useful chymase substrate is Suc-Ala-Ala-Pro-Phe-MCA (4-methylcoumaryl-7-amide group) (manufactured by Peptide Institute, Inc.), which contains the 4-amino acid peptide “Ala-Ala-Pro-Phe”, a standard substrate for chymotrypsin-like proteases.
The assay is performed using a 96-well plate (F16 Black Maxisorp Fluoronunc, manufactured by Nunc), with a reaction mixture volume of 100 μL, in a buffer solution (solution C; see Example 2 below). First, each nucleic acid is prepared in solution C to obtain 50 μL solutions. After 10 μL of the 1 mM substrate prepared in solution C is added, the plate is set to the microplate reader SpectraMax190 (manufactured by Molecular Devices Corporation), and incubated at 37° C. for 5 minutes. Separately, 0.05 μg of chymase (recombinant, manufactured by SIGMA) is diluted in solution C, and 40 μL of this dilution is incubated at 37° C. for 5 minutes. The chymase solution is added to the mixture of the nucleic acid and substrate to initiate an enzyme reaction. The plate containing the reaction mixture is set to the microplate reader SpectraMax190 (manufactured by Molecular Devices Corporation), and examined for time-dependent changes in the fluorescence intensity at 37° C. for 5 minutes (excitation wavelength 380 nm, detection wavelength 460 nm). A linear approximation of the increase in the fluorescence of the AMC (7-amino-4-methylcoumarine) released from the substrate by chymase activity is generated, and its slope is taken as the initial reaction velocity. For control, samples are treated and analyzed in the same manner in two cases: use of a nucleic acid pool containing a random sequence of 30 or 40 nucleotides (negative control), and use of chymostatin, a known chymotrypsin-like serine protease inhibitor (positive control). Taking the initial reaction velocity without the nucleic acid and inhibitor as a 100% enzyme activity, the inhibitory rate for each test substance is calculated, and the inhibitor concentration required to cause a 50% inhibition of the enzyme activity (IC50) is determined.
Whether the nucleic acids shown by SEQ ID NO: 4-20, 22-34, and 38-48 inhibit the enzyme activity of chymase was determined as described below. The chymase substrate used was Suc-Ala-Ala-Pro-Phe-MCA (manufactured by Peptide Institute, Inc.), which contains the 4-amino-acid peptide Ala-Ala-Pro-Phe, a standard substrate for chymotrypsin-like proteases. Here, Suc is a protecting succinyl group, and MCA is a 4-methylcoumaryl-7-amide group; upon cleavage of the C-terminal side of phenylalanine, AMC (7-amino-4-methylcoumarine) is released. By detecting the fluorescence of this AMC, the enzyme activity of chymase can be determined. The assay was performed using a 96-well plate (F16 Black Maxisorp Fluoronunc, manufactured by Nunc), with a reaction mixture volume of 100 μL, in solution C as a buffer solution. First, each nucleic acid was serially diluted to 0.0027-2 μM concentrations in solution C to obtain 50 μL solutions. After 10 μL of the 1 mM substrate prepared in solution C was added thereto, the plate was set to the microplate reader SpectraMax190 (manufactured by Molecular Devices Corporation), and incubated at 37° C. for 5 minutes. Separately, 0.05 μg (or 0.005 μg) of chymase (recombinant, manufactured by SIGMA) was diluted in solution C to obtain a 40 μL chymase solution, and incubated at 37° C. for 5 minutes. The chymase solution was added to the mixture of the nucleic acid and substrate to initiate an enzyme reaction. The final chymase concentration in the reaction mixture was 16.7 nM (or 1.67 nM), the final substrate concentration being 100 μM. The plate containing the reaction mixture was set to the microplate reader SpectraMax190 (manufactured by Molecular Devices Corporation), and examined for time-dependent changes in the fluorescence intensity at 37° C. for 5 minutes (or 30 minutes) (excitation wavelength 380 nm, detection wavelength 460 nm). […]

Series [3] addresses T3, chymase (Homo sapiens, UniProt P23946 P23946:22-247).
T3 sequence: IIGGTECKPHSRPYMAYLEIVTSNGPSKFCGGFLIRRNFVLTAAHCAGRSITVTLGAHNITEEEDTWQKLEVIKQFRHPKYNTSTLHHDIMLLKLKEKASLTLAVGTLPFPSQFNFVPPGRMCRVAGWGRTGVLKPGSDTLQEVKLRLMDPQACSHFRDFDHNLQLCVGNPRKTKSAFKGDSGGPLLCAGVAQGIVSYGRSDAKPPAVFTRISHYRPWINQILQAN
The experiment in a line: inhibition; Suc-AAPF-MCA, 37 C, solution C. The conditions noted are these: tags: recombinant, expressed in yeast, SIGMA. The method, then: Here, Suc is a protecting succinyl group, and MCA is a 4-methylcoumaryl-7-amide group; upon cleavage of the C-terminal side of phenylalanine, AMC (7-amino-4-methyl-coumarine) is released. By detecting the fluorescence of this AMC, the enzyme activity of chymase can be determined. The assay was performed using a 96-well plate (F16 Black Maxisorp Fluoronunc, manufactured by Nunc), with a reaction mixture volume of 100 μL, in solution C as a buffer solution. First, each nucleic acid was serially diluted to 0.0027-2 μM concentrations in solution C to obtain 50 μL solutions. After 10 μL of the 1 mM substrate prepared in solution C was added thereto, the plate was set to the microplate reader SpectraMax190 (manufactured by Molecular Devices Corporation), and incubated at 37° C. for 5 minutes. Separately, 0.05 μg (or 0.005 μg) of chymase (recombinant, manufactured by SIGMA) was diluted in solution C to obtain a 40 μL chymase solution, and incubated at 37° C. for 5 minutes. The chymase solution was added to the mixture of the nucleic acid and substrate to initiate an enzyme reaction. The final chymase concentration in the reaction mixture was 16.7 nM (or 1.67 nM), the final substrate concentration being 100 μM. The plate containing the reaction mixture was set to the microplate reader SpectraMax190 (manufactured by Molecular Devices Corporation), and examined for time-dependent changes in the fluorescence intensity at 37° C. for 5 minutes (or 30 minutes) (excitation wavelength 380 nm, detection wavelength 460 nm). A linear approximation of the increase in the fluorescence of the AMC released from the substrate by chymase activity was generated, and its slope was taken as the initial velocity […]. For control, samples were treated and analyzed in the same manner in two cases: use of a 30N or 40N (a nucleotide of 30 or 40 consecutive bases represented by N; N is A, G, C or T) nucleic acid pool (negative control), and use of chymostatin, a known chymotrypsin-like serine protease inhibitor (positive control). Taking the initial reaction velocity without the nucleic acid and inhibitor (V_0) as a 100% enzyme activity, the inhibitory rate of each test substance was calculated using the following equation: […]
The chymase inhibitory activity was measured in the same manner as in Example 3.

Oligonucleotides are written 5' to 3', each unit as a sugar letter and its base; * is a phosphorothioate linkage, no mark a phosphodiester; rarer units and linkages stand in square brackets, end groups in braces. Plain capitals give the bases only. r = 2'-OH (RNA); f = 2'-fluoro

B1: 10 (nucleic acid)
chain: rGrGrGrAfCrGrGfUrArGrGrArAfUfUfCfCrGfCfCrGfCfCfUrArArArArArAfCrGrAfCrGrAfUrAfUfUrAfCrArGrArArAfCrGfUfCrArArAfUrAfCrAfUrArGrArArGrArGfCrGrGfCfCrGfC
modifications: aptamer
Turning to B1, the “Binding activity as determined using Biacore” value (“Binding activity as determined” for short) with chymase [1] was “++”. In series [2], the half-inhibitory concentration (IC50) was more than 500 nM. Consider GGGUUAGAUAGAGUUAAAAACCC (ssRNA, 2'-F U and C; 2'-OMe 2,3,7,8,10,13,16-20; 5' PEG 40 kDa; 3' idT) [56(39)], for which the 50% inhibitory concentration (IC50) with chymase [3] came to 86 nM. Same read-out and setting: to GGGTTAGAUAGAGTUAAAAACCC (mixed, 2'-F U; 2'-OMe 1-3,7,8,10,16-20; DNA T4,T5,G13,T14,C21-C23; 5' and 3' idT) [72(3)] belongs 50 nM.

B2: 12 (nucleic acid)
chain: rGrGrGrAfCrGrGfUrArGrGrArAfUfUfCrGfCfCrGfUfCrArAfCrGfUfUrAfCrAfUrArAfUrGfUrAfUrAfUrAfCfCrArGrGrGfUrArAfCfUrArArAfCrAfUrArGrArArGrArGfCrGrGfCfCrGfC
modifications: aptamer
For B2, the “Binding activity as determined” value with chymase [1] is “++”. Besides, in series [2], the IC50 worked out at 128 ± 23 nM. Take GGGUUAGAUAGAGUUAAAAACCC (ssRNA, 2'-F U and C; 2'-OMe 2,3,7,8,10,13,16-20; PS 6-7; 5' and 3' idT) [56(41)]: the IC50 in the series with chymase [3] is 53 nM. Still for that read-out and setting: to GGGUUAGAUAGAGUUAAAAACCC (ssRNA, 2'-F U and C; 2'-OMe 1-3,10,13,16-20; PS 7-8; 5' and 3' idT) [56(36)] belongs 97 nM; to GGGTTAGAUAGAGTUAAAAACCC (mixed, 2'-F U; 2'-OMe 1-3,7,8,10,13,17-20; DNA T4,T5,T14,A16,C21-C23; 5' and 3' idT) [72(4)], 65 nM; to GGGUUAGAUAGAGUUAAAAACCC (ssRNA, 2'-F U and C; 2'-OMe 1-3,10,13,16-20; PS 6-7,7-8; 5' and 3' idT) [56(37)], 46 nM.

B3: 11 (nucleic acid)
chain: rGrGrGrAfCrGrGfUrArGrGrArAfUfUfCfCfCrGrAfCrAfCrGrArArAfUrGfUrGfUrGrAfUfUrArAfUfUfCfCrGrArAfCrArAfCrArArArGfUrArAfCrAfUrArGrArArGrArGfCrGrGfCfCrGfC
modifications: aptamer
Take B3: the “Binding activity as determined” value with chymase [1] is “++”. Also, the IC50 in series [2] is 145 ± 36 nM.

Values taken from patent US9012420B2, “Aptamer for chymase, and use thereof” (Ribomic Inc., priority 2009, dated 2015).
